Entries after “also recorded” stand apart in the source; their conditions may differ.
T1: Gas6 (Homo sapiens, UniProt Q14393)
T1 sequence (Q14393 31-678): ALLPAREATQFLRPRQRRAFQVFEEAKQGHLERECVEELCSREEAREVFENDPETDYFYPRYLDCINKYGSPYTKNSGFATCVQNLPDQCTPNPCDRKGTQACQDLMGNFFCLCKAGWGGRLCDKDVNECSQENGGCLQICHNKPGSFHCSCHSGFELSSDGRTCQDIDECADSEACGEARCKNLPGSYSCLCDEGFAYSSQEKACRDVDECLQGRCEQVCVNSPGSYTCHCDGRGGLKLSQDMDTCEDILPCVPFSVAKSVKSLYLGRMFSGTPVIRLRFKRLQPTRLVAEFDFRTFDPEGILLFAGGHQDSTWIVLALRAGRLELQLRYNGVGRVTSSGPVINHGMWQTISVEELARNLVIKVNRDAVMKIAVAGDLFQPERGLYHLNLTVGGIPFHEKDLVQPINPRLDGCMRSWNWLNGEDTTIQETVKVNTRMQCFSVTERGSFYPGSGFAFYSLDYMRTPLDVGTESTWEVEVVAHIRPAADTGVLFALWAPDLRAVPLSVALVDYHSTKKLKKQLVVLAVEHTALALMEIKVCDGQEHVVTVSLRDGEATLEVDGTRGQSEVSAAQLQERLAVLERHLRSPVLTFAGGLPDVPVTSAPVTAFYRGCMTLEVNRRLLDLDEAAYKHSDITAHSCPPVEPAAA


Columns and labels:
[1] = Gel filtration chromatography of knottin-Fc; type: physicochemical
PC3 cells = experiment: Inhibition of PC3 cell adhesion to vitronectin by knottin-Fc proteins; type: cell-based; conditions: knottin-Fc fusions, FIG. 10
Method: Negative control is an irrelevant protein.
In another tumor model, the ability of the knottin-Fc proteins to inhibit PC3 cell adhesion to the extracellular matrix (ECM) protein vitronectin was analyzed. […] As the inhibition of integrin-ECM adhesion induces caspase-mediated apoptosis, this biological mechanism will be explored in future studies.

sk0v3 cells = experiment: Binding of knottin-Fc proteins to sk0v3 cells; conditions: measured against wild-type EETII-Fc
Method: The binding of the knottin-Fc proteins to tumor cell lines were then measured.

[2] = circular dichroism
αvβ3 integrin [3] = target: T2, αvβ3 integrin (Homo sapiens, UniProt P05106+P06756); experiment: Yeast display binding to αvβ3 integrin in presence of saturating Gas6; conditions: 100 or 200 nM αvβ3 integrin with 100 nM Gas6
αvβ3 integrin [4] = target: T2, αvβ3 integrin; experiment: Yeast display binding of EETI 2.5D-Axl fusion to soluble αvβ3 integrin; conditions: 20, 50 or 100 nM αvβ3 integrin
αvβ3 integrin [5] = target: T2, αvβ3 integrin; experiment: cRGD competition of EETI 2.5D-Axl binding to K562-αvβ3 cells
Gas6 [6] = target: T1, Gas6; experiment: Yeast display binding to Gas6 in presence of saturating αvβ3 integrin; conditions: 20 or 100 nM Gas6 with 200 nM αvβ3 integrin
Gas6 [7] = target: T1, Gas6; experiment: Yeast display binding of EETI 2.5D-Axl fusion to Gas6
αvβ3 integrin [8] = target: T2, αvβ3 integrin; experiment: Binding of soluble EETI 2.5D-Axl to K562-αvβ3 cells (flow cytometry); conditions: soluble protein from Pichia pastoris

T2 sequence (P06756 31-889 limits assumed): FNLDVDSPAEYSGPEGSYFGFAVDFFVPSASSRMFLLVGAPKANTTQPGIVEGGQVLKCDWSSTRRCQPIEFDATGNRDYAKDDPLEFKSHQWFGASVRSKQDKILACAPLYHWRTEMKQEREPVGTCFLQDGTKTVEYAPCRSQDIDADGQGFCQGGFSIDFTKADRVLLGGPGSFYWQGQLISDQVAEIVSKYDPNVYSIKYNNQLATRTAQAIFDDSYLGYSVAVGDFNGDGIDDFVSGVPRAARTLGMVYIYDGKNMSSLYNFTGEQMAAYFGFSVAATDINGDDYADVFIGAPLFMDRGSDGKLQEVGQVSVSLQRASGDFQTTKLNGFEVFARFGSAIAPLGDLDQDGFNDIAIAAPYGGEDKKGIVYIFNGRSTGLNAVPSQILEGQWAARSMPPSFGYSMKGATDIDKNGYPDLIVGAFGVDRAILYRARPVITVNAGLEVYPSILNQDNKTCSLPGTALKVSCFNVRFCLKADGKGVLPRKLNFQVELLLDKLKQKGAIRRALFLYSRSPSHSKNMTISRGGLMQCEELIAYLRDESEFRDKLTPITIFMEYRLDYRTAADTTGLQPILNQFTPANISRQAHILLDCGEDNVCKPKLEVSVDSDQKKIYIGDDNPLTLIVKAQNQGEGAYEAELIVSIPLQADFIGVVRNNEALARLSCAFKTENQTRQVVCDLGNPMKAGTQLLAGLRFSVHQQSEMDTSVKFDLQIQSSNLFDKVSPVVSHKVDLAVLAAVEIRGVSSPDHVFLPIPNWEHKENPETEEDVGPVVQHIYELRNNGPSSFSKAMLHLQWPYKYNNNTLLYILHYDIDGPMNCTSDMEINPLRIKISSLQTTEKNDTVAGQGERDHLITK
T2 sequence (P06756 891-1048 partner limits assumed): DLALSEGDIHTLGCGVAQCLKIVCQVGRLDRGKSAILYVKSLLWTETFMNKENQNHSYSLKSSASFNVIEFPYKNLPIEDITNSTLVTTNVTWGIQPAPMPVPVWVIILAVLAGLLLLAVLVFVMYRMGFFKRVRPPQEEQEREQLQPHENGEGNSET
T2 sequence (P05106 27-788): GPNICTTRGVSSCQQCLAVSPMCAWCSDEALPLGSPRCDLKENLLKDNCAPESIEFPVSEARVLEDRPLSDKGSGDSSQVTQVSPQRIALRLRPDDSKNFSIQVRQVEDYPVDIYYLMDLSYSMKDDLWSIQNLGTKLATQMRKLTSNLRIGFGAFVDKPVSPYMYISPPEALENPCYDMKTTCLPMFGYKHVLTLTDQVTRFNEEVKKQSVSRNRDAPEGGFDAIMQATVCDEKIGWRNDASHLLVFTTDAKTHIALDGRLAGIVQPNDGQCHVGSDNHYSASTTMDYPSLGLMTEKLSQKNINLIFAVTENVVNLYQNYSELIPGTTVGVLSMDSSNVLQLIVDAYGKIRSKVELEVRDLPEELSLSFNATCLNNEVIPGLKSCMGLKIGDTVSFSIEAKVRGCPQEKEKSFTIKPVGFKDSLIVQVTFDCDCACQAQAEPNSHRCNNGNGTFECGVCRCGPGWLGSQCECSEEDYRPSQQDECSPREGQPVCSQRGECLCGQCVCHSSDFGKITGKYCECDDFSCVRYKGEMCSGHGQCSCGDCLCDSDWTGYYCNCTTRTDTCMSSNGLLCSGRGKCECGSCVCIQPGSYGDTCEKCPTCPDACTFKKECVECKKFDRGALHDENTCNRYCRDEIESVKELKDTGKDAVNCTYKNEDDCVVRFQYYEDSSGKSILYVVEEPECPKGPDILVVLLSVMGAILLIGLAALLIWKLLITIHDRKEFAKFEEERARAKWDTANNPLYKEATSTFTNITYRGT

Molecule | tendency to aggregate [1] | inhibition of PC3 cell adhesion to vitronectin (PC3 cells) | affinity to sk0v3 cells (sk0v3 cells) | Tm (° C.) [2] | melting temperature (Tm) [2] | binding to αvβ3 integrin in presence of saturating Gas6 (αvβ3 integrin [3]) | binding to αvβ3 integrin in presence of saturating Gas6 (αvβ3 integrin [3]; listed as 2.5D-Axl) | binding to soluble αvβ3 integrin (αvβ3 integrin [4]) | binding to soluble αvβ3 integrin (αvβ3 integrin [4]; listed as 2.5D-Axl) | binding of EETI 2.5D-Axl to K562-αvβ3 cells with molar excess of cRGD (αvβ3 integrin [5]) | binding to Gas6 in presence of saturating αvβ3 integrin (Gas6 [6]) | binding to Gas6 in presence of saturating αvβ3 integrin (Gas6 [6]; listed as 2.5D-Axl) | binding to Gas6 (Gas6 [7]; 0.2, 2 or 20 nM Gas6) | binding to Gas6 (Gas6 [7]; 0.2, 2 or 20 nM Gas6, listed as 2.5D-Axl) | equilibrium binding to cells transfected to overexpress αvβ3 integrin (αvβ3 integrin [8])
2.5D-Fc: EETI-based knottin 2.5D fused to Fc domain of mouse Ig2a (protein) GCPQGRGDWAPTSCKQDSDCRAGCVCGPNGFCGEPRGPTIKPCPPCKCPAPNLLGGPSVFIFPPKIKDVLMISLSPIVTCVVVDVSEDDPDVQISWFVNNVEVHTAQTQTHREDYNSTLRVVSALPIQHQDWMSGKEFKCKVNNKDLPAPIERTISKPKGSVRAPQVYVLPPPEEEMTKKQVTLTCMVTDFMPEDIYVEWTNNGKTELNYKNTEPVLDSDGSYFMYSKLRVEKKNWVERNSYSCSVVHEGLHNHHTTKSFSRTPGK | no tendency to aggregate | low nanomolar range | – | – | – | – | – | – | – | – | – | – | – | – | –
2.5F-Fc: EETI-based knottin 2.5F fused to Fc domain of mouse Ig2a (protein) GCPRPRGDNPPLTCKQDSDCLAGCVCGPNGFCGEPRGPTIKPCPPCKCPAPNLLGGPSVFIFPPKIKDVLMISLSPIVTCVVVDVSEDDPDVQISWFVNNVEVHTAQTQTHREDYNSTLRVVSALPIQHQDWMSGKEFKCKVNNKDLPAPIERTISKPKGSVRAPQVYVLPPPEEEMTKKQVTLTCMVTDFMPEDIYVEWTNNGKTELNYKNTEPVLDSDGSYFMYSKLRVEKKNWVERNSYSCSVVHEGLHNHHTTKSFSRTPGK | – | low nanomolar range | greater affinity | – | – | – | – | – | – | – | – | – | – | – | –
EETI 2.5D-Axl: EETI 2.5D directly fused to N-terminus of wt Axl Ig1 (amino acids 21-132), SEQ ID NO: 84 (protein) GCPQGRGDWAPTSCSQDSDCLAGCVCGPNGFCGSRGTQAEESPFVGNPGNITGARGLTGTLRCQLQVQGEPPEVHWLRDGQILELADSTQTQVPLGEDEQDDWIVVSQLRITSLQLSDTGQYQCLVFLGHQTFVSQPGYVGLEGLP | – | – | – | 52 ± 0.7 °C | ~52 °C | not affected; also recorded: is not lost | the same as when they were measured individually | levels comparable to the mono-specific proteins; also recorded: affinities similar to its corresponding mono-specific components | matched that of 2.5D | binding specifically to αvβ3 integrin | not affected; also recorded: maintains affinity to Gas6 | the same as when they were measured individually | levels comparable to the mono-specific proteins; also recorded: affinities similar to its corresponding mono-specific components | maintained wild-type Axl's affinity | consistent with that previously determined for 2.5D

— US12240882B2, “Fusion proteins comprising an engineered knottin peptide and uses thereof” (The Board of Trustees of the Leland Stanford Junior …, priority 2010, dated 2025)
